T1: biotinylated IL-2 receptor beta gamma heterodimer Fc (IL-2RBG; Acro ILG-H5254) (UniProt P14784 27-239; P31785 23-262, biotinylated)
T1 construct: bought heterodimer
T1 sequence (looked up) 1: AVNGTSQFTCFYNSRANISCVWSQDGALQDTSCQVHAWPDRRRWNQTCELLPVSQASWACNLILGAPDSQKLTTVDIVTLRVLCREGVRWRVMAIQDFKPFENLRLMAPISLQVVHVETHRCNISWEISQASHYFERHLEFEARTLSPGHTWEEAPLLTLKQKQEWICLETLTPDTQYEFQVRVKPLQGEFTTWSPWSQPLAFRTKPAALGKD
T1 sequence (looked up) 2: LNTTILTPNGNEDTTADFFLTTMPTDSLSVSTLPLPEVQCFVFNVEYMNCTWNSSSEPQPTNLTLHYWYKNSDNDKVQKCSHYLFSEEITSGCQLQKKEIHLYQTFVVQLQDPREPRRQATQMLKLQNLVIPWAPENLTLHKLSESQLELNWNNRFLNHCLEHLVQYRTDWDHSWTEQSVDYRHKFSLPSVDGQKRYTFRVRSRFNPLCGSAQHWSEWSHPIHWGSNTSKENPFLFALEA


Key:
human IL-2 [1] = biological target: T2, human IL-2 (human, UniProt P60568 21-153, biotin-labeled in the IL2RB blocking assay); test: HTRF
T2 construct: also called biotin-labeled IL-2 (Acro Biosystems IL2-H82E4)

PD-1 = PD-1 (human, UniProt Q15116 25-167, limits assumed); test: HTRF
human IL-2 [2] = biological target: T2, human IL-2; test: HTRF IL-2:IL2RB
[3] = biological target: T1, biotinylated IL-2 receptor beta gamma …; test: ELISA, captured complex, biotin-IL-2RBG titrated

PD-1, sequence (Q15116 25-167 limits assumed): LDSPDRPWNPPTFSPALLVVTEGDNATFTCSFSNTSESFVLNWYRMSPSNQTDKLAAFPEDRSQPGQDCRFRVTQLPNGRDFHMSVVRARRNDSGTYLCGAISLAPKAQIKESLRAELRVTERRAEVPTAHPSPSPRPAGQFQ
T2 sequence (P60568 21-153 limits assumed): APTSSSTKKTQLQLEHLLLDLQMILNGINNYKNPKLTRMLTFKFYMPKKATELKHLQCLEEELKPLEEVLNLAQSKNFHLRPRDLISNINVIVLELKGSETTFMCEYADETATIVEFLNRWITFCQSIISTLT

Binder | IL2 Binding (human IL-2 [1]) | PD1 Binding (PD-1) | IL2RB Blocking (human IL-2 [2]) | binding result [3]
PD1-R04-C10 (scFv, tied by the comment 'PD1_R04_C10- Internal anti-PD1 mAb' of PEP001315) scFv: MSTSTEQKLISEEDLQVQLVQSGAEVKKPGASVKVSCKASGYTFTTYYMHWVRQAPGQGLEWMGIINPSGGGTLYAQKFQGRVTMTRDTSTSTVYMELSSLRSEDTAVYYCAAGLFIWGQGTTVTVSSASGGGGSGGGGSGGGGSHASDIVMTQSPDSLAVSLGERATINCKASQSLLHSSSNKNYLAWYQQKPGQPPKLLIYWASTRESGVPDRFSGSGSGTDFTLTISSLQAEDVAVYYCQQYYSTPITFGPGTKVDIKGSGLNDIFEAQKIEWHEGKPIPNPLLGLDST | 4 | 1550 | 1550 | 
PD1-IL2-R02-B05 (scFv) QVQLVQSGAEVKKPGASVKVSCKASGYTFTNYYIHWVRQAPGQGLEWMGIINPRAGYTSYALKFQGRVTMTRDTSTSTVYMELSSLRSEDTAVYYCAGGWLDWGQGTLVTVSSASGGGGSGGGGSGGGGSHASDIQMTQSPSSLSASVGDRVTITCRASQSISSWLAWYQQKPGKAPKLLIYAASSLQSGVPSRFSGSGSGTDFTLTISSLQPEDFATYYCQQSFTMPITFGQGTRLEIK | 2490 | 1660 | 1610 | 
PD1-IL2-R02-B07 (scFv) QVQLVQSGAEVKKPGASVKVSCKASGDTFTRHYVHWVRQAPGQGLEWMGIINPSGGYASYAQKFQGRVTMTRDTSTSTVYMELSSLRSEDTAVYYCAAGLFIWGQGTLVTVSSASGGGGSGGGGSGGGGSHASDIQMTQSPSSLSASVGDRVTITCRASQSIGRWLAWYQQKPGKAPKLLIYSASNLETGVPSRFSGSGSGTDFTLTISSLQPEDFATYYCQQANSFPVTFGPGTKVDIK | 628 | 1680 | 1810 | 
AF004695 (other, also called AF4695) heavy 1: QVQLVESGGGVVQPGRSLRLDCKASGITFSNSGMHWVRQAPGKGLEWVAVIWYDGSKRYYADSVKGRFTISRDNSKNTLFLQMNSLRAEDTAVYYCATNDDYWGQGTLVTVSSAKTTAPSVYPLAPVCGDTTGSSVTLGCLVKGYFPEPVTLTWNSGSLSSGVHTFPAVLQSDLYTLSSSVTVTSSTWPSQSITCNVAHPASSTKVDKKIEPRGPTIKPCPPCKCPAPNAAGGPSVFIFPPKIKDVLMISLSPIVTCVVVDVSEDDPDVQISWFVNNVEVHTAQTQTHREDYNSTLRVVSALPIQHQDWMSGKEFKCKVNNKDLGAPIERTISKPKGSVRAPQVYVLPPPEEEMTKKQVTLTCMVTDFMPEDIYVEWTNNGKTELNYKNTEPVLDSDGSYFMYSDLRVEKKNWVERNSYSCSVVHEGLHNHHTTESFSRTPGGGGGSGGGGSGGGGSAPTSSSTKKTQLQLEHLLLDLQMILNGINNYKNPKLTDMLTFEFYMPKKATELKHLQCLERELKPLEEVLNLAQSKNFHLRPRDLISNINVIVLELKGSETTFMCEYADETATIVEFLNRWITFCQSIISTLT heavy 2: QVQLVESGGGVVQPGRSLRLDCKASGITFSNSGMHWVRQAPGKGLEWVAVIWYDGSKRYYADSVKGRFTISRDNSKNTLFLQMNSLRAEDTAVYYCATNDDYWGQGTLVTVSSAKTTAPSVYPLAPVCGDTTGSSVTLGCLVKGYFPEPVTLTWNSGSLSSGVHTFPAVLQSDLYTLSSSVTVTSSTWPSQSITCNVAHPASSTKVDKKIEPRGPTIKPCPPCKCPAPNAAGGPSVFIFPPKIKDVLMISLSPIVTCVVVDVSEDDPDVQISWFVNNVEVHTAQTQTHREDYNSTLRVVSALPIQHQDWMSGKEFKCKVNNKDLGAPIERTISKPKGSVRAPQVYVLPPPEKEMTKKQVSLTCLVKDFMPEDIYVEWTNNGKTELNYKNTEPVLKSDGSYFMYSKLTVEKKNWVERNSYSCSVVHEGLHNHHTTKSFSRTPGGGGGSGGGGSGGGGSGGGGSQVQLVQSGAEVKKPGASVKVSCKASGDTFTRYYVHWVRQAPGQGLEWMGIINPSGGYASYAQKFQGRVTMTRDTSTSTVYMELSSLRSEDTAVYYCAAGLFIWGQGTLVTVSSASGGGGSGGGGSGGGGSHASDIQMTQSPSSLSASVGDRVTITCRASQSIGRWLAWYQQKPGKAPKLLIYSASNLETGVPSRFSGSGSGTDFTLTISSLQPEDFATYYCQQYNRFPVTFGPGTKVDIK light: EIVLTQSPATLSLSPGERATLSCRASQSVSSYLAWYQQKPGQAPRLLIYDASNRATGIPARFSGSGSGTDFTLTISSLEPEDFAVYYCQQSSNWPRTFGQGTKVEIKRADAAPTVSIFPPSSEQLTSGGASVVCFLNNFYPKDINVKWKIDGSERQNGVLNSWTDQDSKDSTYSMSSTLTLTKDEYERHNSYTCEATHKTSTSPIVKSFNRNEC |  |  |  | binds
PD1-IL2-R02-C02 (SEQ ID NO: 31) (scFv, V5-tagged in the assay) scFv: QVQLVQSGAEVKKPGVSVKVSCKASGYTFPRSYIHWVRQAPGQGLEWMGWINPHSGDTYYAQNFQGRVTMTRDTSTSTVYMELSSLRSEDTAVYYCARDTGLGYYYGSGDFDYWGQGTLVTVSSASGGGGSGGGGSGGGGSHASDIQMTQSPSSLSASVGDRVTITCRASQSISRYLNWYQQKPGKAPKLLIYTASSLQSGVPSRFSGSGSGTDFTLTISSLQPEDFATYYCQQANRFPLTFGPGTKVDIK | 298 | 1300 | 1070 | 
PD1-IL2-R02-C03 (SEQ ID NO: 32) (scFv, V5-tagged in the assay) scFv: QVQLVQSGAEVKKPGASVKVSCKASGYTFPRYHIHWVRQAPGQGLEWMGMINPSGGTTTYAQKFQGRVTMTRDTSTSTVYMELSSLRSEDTAVYYCARDTGLGYYYGSGDFDYWGQGTLVTVSSASGGGGSGGGGSGGGGSHASDIQMTQSPSSLSASVGDRVTITCRASQSISSWLAWYQQKPGKAPKLLIYAASSLQSGVPSRFSGSGSGTDFTLTISSLQPEDFATYYCQQSHSFPLTFGGGTKVEIK | 293 | 1380 | 1210 | 

Reference: patent publication US20240366776A1 (Hoffmann-La Roche, published 2024)
